{"source": "paper PMC9642902", "about": "(2022)", "binders": {"B1": {"name": "potato ATG8-2.2 (StATG8-2.2), protein for ITC (natural protein)", "chain": "MAKSSFKLEHPLERRQAEAARIREKYPDRIPVIVEKAERSDIPDIDKKKYLVPADLTVGQFVYVVRKRIKLSAEKAIFIFVKNILPPTAAMMSAIYEEHKDEDGFLYMTYSGENTFG"}}, "experiment_in_all_cases": "ITC", "key": {"[1]": {"target": "MjATG8-I, recombinant protein for ITC (Mirabilis jalapa)"}, "[2]": {"target": "MjATG8-III, recombinant protein for ITC (Mirabilis jalapa)"}, "PmPexRD54 AIM peptide": {"target": "PmPexRD54 AIM peptide (Phytophthora mirabilis)"}}, "data": [{"binder": "KPLDFDWEIV", "note": "[PiPexRD54 AIM peptide]", "values": [{"measurement": "Kd", "setting": "[1]", "value": 0.21, "unit": "µM"}, {"measurement": "Kd", "setting": "[2]", "value": 0.12, "unit": "µM"}]}, {"binder": "B1", "values": [{"measurement": "Kd", "setting": "PmPexRD54 AIM peptide", "value": 4200, "unit": "µM"}]}]}
